{
  "source": "patent US20240060050A1",
  "about": "“CANINE HEPATIC ORGANOIDS” (Iowa State University Research Foundation, Inc., priority 2021, published 2024)",
  "molecules": {"B1": {"name": "Anti Hot: 337 bp ssDNA HDR template, antisense strand, with 4 bp [ATAG] deletion, electroporated with Cas9 RNP (nucleic acid)", "antisense": "CAAAGCGATAAGTTTAACCGAACTATCCAACATATACAACCACCCCTGTTACCGACGGTAGTAGGTACCTCGACGTGAGGGAGAGTACTACGACCAAAAACCTTTGTACTGTCGAAACGTTTACGTCCTTAAAGTTCTTTGTTTTGAAAAGGTCAATATTAATTACTTTCATTCATAATAAACACCGTGACTAGAATCTCCAAACTTCTTTTTAGACAATGAATCTTCCTACAAATCGGGAGTAATTTATGTAATCACACAAATAAAGACCCCCTTTTCCCTCCTCAGACTCGATGTCAATTATAACCATTATTCAAACTCTTCTATTATTAGTATT"}, "B2": {"name": "Sense Hot: 337 bp ssDNA HDR template, sense strand, with 4 bp [ATAG] deletion, electroporated with Cas9 RNP (nucleic acid)", "sense": "GTTTCGCTATTCAAATTGGCTTGATAGGTTGTATATGTTGGTGGGGACAATGGCTGCCATCATCCATGGAGCTGCACTCCCTCTCATGATGCTGGTTTTTGGAAACATGACAGCTTTGCAAATGCAGGAATTTCAAGAAACAAAACTTTTCCAGTTATAATTAATGAAAGTAAGTATTATTTGTGGCACTGATCTTAGAGGTTTGAAGAAAAATCTGTTACTTAGAAGGATGTTTAGCCCTCATTAAATACATTAGTGTGTTTATTTCTGGGGGAAAAGGGAGGAGTCTGAGCTACAGTTAATATTGGTAATAAGTTTGAGAAGATAATAATCATAA"}},
  "system": "ABCB1 (MDR1) gene, exon 4",
  "experiment": "CRISPR/Cas9 HDR template insertion (ABCB1-1Δ knock-in) in liver organoids, amplicon sequencing",
  "type": "cell-based, canine",
  "description": "The HDR template was a Megamer single-stranded DNA (ssDNA) fragment ordered from IDT. It was designed with 35 bp homology arms with a total length of the ssDNA being 337 bp. The HDR template used the exact sequence as the canine organoids were derived from, with the only difference being the 4 bp deletion [ATAG] near the middle of the strand. Both the positive and negative strand were reconstituted separately to determine which incorporation was most efficient.\nApproximately 500,000 cells were pooled for each electroporation cuvette. Media was removed from the wells, and organoids were resuspended in 500 μL Advanced DMEM/F12 (Gibco; Ref 12634-010). Organoids were centrifuged at 700 g at 4° C. for 5 min to form a pellet. Media was removed down to 500 μL, and the pellet was resuspended with 500 μL of TrypLETM Express (Gibco, Ref 12604-021) and pipette mixed approximately 15 times to assist in dissociation. Organoids were immediately placed in the hot water bath for 10 minutes at 37° C. and halfway through they were briefly (1 s) vortexed twice. After incubation, the sample was pipette mixed (5 times) and 10 μL of the sample was taken to determine cell concentration and check for successful dissociation. As described in Merenda et al. 2017, clusters of 10-15 cells increased survival post electroporation compared to a single cell suspension (Merenda et al., 2017). Immediately 6 mL of Advanced DMEM/F12 was added to stop the chemical dissociation. Again, organoids were centrifuged at 700 g at 4° C. for 5 min to form a pellet and the supernatant was removed.\nDuring dissociation, the ribonucleoprotein (RNP) was prepared. 150 pmol of crRNA (IDT) and 150 pmol of tracrRNA (IDT) were mixed and heated for 5 min at 95° C. in a thermocycler. Next, the mixture was removed from the heat and allowed to cool to room temperature for ˜10 minutes. Then, 300 pmol of Cas9 Nuclease V3 (IDT) was added and incubated for 10 min at room temperature (RT).\nThe organoid pellet was resuspended in 90 μL of BTXpress electroporation solution (BTX; Ref 45-0801). […] The solution was added to a chilled cuvette and after the addition of the solution, the cuvette was checked for bubbles, the outside was wiped dry, and placed in a NEPA21 electroporator (Nepagene). The electroporation details can be seen in Table 6. A control GFP plasmid was electroporated separately to help determine the efficiency of electroporation. It is common to add a buffer or media solution to assist in cell recovery after electroporation. Immediately following electroporation, 400 μL of room temperature CMGF+ R/G organoid media as previously described was added to the cuvette, and the organoids were transferred to a 1.5 mL tube. The cell mixture was incubated for 30 min at RT then centrifuged at 700 g for 5 min to form a pellet. […]",
  "key": {"[1]": {"settings": "cold shock: 30° C. for 48 hours after electroporation"}, "[2]": {"settings": "incubation at 37° C. after electroporation"}},
  "data": [
    {"molecule": "B1", "values": [
      {"measurement": "estimated efficiency of correct HDR template insertion", "setting": "[1]", "value": 0, "unit": "%"},
      {"measurement": "estimated efficiency of correct HDR template insertion", "setting": "[2]", "value": "~0.00303", "unit": "%"}
    ]},
    {"molecule": "B2", "values": [
      {"measurement": "estimated efficiency of correct HDR template insertion", "setting": "[1]", "value": "~0.0705", "unit": "%"},
      {"measurement": "estimated efficiency of correct HDR template insertion", "setting": "[2]", "value": "~0.0348", "unit": "%"}
    ]}
  ]
}
